The text below walks through data of IntAct's records for PubMed 35512704.

The chains are these.
B1: Mothers against decapentaplegic homolog 4 (Homo sapiens), Q13485 (parent)
chain: MDNMSITNTPTSNDACLSIVHSLMCHRQGGESETFAKRAIESLVKKLKEKKDELDSLITAITTNGAHPSKCVTIQRTLDGRLQVAGRKGFPHVIYARLWRWPDLHKNELKHVKYCQYAFDLKCDSVCVNPYHYERVVSPGIDLSGLTLQSNAPSSMMVKDEYVHDFEGQPSLSTEGHSIQTIQHPPSNRASTETYSTPALLAPSESNATSTANFPNIPVASTSQPASILGGSHSEGLLQIASGPQPGQQQNGFTGQPATYHHNSTTTWTGSRTAPYTPNLPHHQNGHLQHHPPMPPHPGHYWPVHNELAFQPPISNHPAPEYWCSIAYFEMDVQVGETFKVPSSCPIVTVDGYVDPSGGDRFCLGQLSNVHRTEAIERARLHIGKGVQLECKGEGDVWVRCLSDHAVFVQSYYLDREAGRAPGDAVHKIYPSAYIKVFDLRQCHRQMQQQAATAQAAAAAQAAAVAGNIPGPGSVGGIAPAISLSAAAGIGVDDLRRLCILRMSFVKGWGPDYPRQSIKETPCWIEIHLHRALQLLDEVLHTMPIADPQPLD
partner: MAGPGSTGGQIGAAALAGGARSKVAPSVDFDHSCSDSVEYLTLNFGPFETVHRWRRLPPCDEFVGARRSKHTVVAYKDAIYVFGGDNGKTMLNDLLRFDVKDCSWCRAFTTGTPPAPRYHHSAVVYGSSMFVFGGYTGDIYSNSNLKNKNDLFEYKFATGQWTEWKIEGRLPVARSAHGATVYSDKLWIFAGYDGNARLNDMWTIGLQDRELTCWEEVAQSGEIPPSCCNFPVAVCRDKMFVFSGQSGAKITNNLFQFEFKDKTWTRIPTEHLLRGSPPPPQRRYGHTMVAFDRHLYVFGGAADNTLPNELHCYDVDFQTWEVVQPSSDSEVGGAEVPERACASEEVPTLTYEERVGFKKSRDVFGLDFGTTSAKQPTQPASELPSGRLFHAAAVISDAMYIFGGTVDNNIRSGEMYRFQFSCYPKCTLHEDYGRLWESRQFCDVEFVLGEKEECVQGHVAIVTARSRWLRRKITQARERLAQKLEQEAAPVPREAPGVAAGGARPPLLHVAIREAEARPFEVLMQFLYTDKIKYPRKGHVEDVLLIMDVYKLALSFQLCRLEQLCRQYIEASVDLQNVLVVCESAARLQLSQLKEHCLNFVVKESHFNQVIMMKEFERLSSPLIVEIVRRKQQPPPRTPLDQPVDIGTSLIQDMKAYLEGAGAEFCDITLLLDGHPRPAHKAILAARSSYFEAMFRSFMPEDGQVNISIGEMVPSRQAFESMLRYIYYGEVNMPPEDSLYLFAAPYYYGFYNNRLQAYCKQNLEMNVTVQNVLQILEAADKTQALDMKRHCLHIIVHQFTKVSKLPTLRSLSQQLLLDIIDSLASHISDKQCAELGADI
B2: Mothers against decapentaplegic homolog 4 (Homo sapiens), Q13485 (parent)
chain: B1 chain
partner: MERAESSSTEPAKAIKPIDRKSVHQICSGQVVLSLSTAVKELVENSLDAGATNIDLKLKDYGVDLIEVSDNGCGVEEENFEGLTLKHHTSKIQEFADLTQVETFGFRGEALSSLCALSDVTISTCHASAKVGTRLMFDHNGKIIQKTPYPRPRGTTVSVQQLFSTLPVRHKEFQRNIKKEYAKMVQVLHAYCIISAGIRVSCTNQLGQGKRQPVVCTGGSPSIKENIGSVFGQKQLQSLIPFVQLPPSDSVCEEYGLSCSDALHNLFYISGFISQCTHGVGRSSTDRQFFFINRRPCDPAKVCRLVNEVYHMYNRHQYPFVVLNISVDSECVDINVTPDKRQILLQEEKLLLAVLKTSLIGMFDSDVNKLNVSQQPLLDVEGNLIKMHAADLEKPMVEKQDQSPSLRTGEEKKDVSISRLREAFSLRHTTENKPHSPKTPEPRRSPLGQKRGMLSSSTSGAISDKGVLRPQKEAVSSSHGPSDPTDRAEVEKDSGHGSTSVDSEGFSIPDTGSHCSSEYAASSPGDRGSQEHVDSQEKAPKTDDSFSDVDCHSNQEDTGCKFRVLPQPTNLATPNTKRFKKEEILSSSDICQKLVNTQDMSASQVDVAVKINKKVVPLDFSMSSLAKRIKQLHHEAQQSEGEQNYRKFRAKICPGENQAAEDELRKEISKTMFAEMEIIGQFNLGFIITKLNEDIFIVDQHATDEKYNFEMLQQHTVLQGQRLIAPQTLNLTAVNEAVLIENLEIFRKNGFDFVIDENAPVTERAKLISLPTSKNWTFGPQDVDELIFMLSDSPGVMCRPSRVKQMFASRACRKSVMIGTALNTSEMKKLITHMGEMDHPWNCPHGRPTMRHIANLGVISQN
B3: Mothers against decapentaplegic homolog 4 (Homo sapiens), Q13485 (parent)
chain: B1 chain
partner: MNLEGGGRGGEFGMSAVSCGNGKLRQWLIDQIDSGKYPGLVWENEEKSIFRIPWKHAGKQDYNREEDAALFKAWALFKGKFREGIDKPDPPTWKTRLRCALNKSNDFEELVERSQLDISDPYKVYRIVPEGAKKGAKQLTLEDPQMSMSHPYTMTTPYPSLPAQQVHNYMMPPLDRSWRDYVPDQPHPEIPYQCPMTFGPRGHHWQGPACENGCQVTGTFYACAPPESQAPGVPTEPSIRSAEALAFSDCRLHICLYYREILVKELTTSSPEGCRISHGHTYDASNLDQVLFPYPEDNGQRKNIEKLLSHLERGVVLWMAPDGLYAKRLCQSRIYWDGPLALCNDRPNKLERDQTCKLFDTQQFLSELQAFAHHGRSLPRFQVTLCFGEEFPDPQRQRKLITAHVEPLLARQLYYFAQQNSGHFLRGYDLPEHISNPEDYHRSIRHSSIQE
B4: Mothers against decapentaplegic homolog 4 (Homo sapiens), Q13485 (parent)
chain: B1 chain
partner: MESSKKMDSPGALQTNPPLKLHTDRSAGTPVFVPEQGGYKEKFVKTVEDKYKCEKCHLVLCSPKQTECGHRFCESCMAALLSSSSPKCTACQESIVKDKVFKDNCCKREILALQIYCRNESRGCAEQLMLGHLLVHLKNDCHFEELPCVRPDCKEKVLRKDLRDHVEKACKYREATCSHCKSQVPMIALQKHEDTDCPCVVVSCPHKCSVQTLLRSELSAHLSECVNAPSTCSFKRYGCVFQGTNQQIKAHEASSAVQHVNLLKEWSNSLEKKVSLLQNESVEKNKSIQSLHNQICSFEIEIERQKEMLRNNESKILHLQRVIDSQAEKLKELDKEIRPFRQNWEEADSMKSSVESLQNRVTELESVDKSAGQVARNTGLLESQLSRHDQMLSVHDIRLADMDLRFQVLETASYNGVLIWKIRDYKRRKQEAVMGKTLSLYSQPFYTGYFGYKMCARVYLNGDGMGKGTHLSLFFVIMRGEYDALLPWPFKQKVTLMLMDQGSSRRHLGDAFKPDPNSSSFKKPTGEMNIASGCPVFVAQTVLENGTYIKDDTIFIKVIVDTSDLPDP
B5: Mothers against decapentaplegic homolog 4 (Homo sapiens), Q13485 (parent)
chain: B1 chain
partner: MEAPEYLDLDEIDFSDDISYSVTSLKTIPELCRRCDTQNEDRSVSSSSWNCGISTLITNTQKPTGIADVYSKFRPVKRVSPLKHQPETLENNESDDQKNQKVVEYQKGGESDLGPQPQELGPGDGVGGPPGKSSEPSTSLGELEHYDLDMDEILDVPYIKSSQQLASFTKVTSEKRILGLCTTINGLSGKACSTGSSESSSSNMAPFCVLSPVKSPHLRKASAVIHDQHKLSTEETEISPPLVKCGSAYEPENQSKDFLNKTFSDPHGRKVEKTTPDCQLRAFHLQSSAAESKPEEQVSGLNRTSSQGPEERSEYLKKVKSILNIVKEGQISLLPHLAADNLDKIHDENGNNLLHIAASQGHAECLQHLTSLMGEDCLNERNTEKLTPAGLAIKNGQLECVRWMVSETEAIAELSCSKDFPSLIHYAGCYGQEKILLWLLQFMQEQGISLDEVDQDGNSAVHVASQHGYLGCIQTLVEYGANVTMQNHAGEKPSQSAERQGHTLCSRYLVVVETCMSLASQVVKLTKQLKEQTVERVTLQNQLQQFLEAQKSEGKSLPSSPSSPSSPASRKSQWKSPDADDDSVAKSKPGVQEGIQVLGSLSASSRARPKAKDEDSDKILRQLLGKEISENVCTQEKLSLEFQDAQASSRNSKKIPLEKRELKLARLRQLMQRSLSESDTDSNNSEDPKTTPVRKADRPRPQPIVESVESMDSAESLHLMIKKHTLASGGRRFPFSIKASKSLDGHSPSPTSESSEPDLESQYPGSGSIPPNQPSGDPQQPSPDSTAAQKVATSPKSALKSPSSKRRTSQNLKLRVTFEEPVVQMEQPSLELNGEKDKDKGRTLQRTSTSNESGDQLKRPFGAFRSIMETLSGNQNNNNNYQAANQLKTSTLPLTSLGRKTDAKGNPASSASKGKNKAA
B6: Mothers against decapentaplegic homolog 4 (Homo sapiens), Q13485 (parent)
chain: B1 chain
partner: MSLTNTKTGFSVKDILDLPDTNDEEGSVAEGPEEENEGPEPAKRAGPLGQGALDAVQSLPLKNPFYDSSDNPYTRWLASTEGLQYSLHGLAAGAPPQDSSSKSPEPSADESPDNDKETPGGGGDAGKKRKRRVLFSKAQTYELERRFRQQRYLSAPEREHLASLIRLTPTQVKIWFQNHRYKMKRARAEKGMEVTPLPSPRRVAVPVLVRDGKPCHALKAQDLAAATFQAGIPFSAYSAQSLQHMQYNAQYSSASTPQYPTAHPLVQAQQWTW
B7: Mothers against decapentaplegic homolog 4 (Homo sapiens), Q13485 (parent)
chain: B1 chain
partner: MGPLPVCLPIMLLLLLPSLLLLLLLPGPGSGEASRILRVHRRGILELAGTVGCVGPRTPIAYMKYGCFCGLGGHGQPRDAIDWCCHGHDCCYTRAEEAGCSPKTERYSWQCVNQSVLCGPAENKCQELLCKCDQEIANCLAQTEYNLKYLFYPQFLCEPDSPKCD

The first test covers variants of B1. The following applies: with lztr1_human LZTR1, Q8N653.
With D351H, the “effect of a mutation on the interaction” value is listed as “with no effect”.

Another test covers variants of B1. The settings on record: with lztr1_human LZTR1, Q8N653. This is another data set of the same source.
Consider G386D, for which the “effect of a mutation on the interaction” value is given as “with no effect”.

In another test the parent is B2. The settings on record: with pms2_human PMS2, P54278.
For the variant D351H, the “effect of a mutation on the interaction” value is “with no effect”.

The next test covers variants of B2. The settings on record: with pms2_human PMS2, P54278. The source holds these as a separate data set.
Turning to G386D, the “effect of a mutation on the interaction” value was “with no effect”.

In another test the parent is B2. The settings on record: with pms2_human PMS2, P54278. The source holds these as a separate data set.
For the variant R361H, the “effect of a mutation on the interaction” value was “with no effect”.

Another test covers variants of B2. The following applies: with pms2_human PMS2, P54278. The source holds these as a separate data set.
As to R361C, the “effect of a mutation on the interaction” value is “with no effect”.

The variants in a further test derive from B3. The following applies: with irf4_human IRF4, Q15306.
For G386D, the “effect of a mutation on the interaction” value is listed as “with no effect”.

A further test covers variants of B3. The settings on record: with irf4_human IRF4, Q15306. The source holds these as a separate data set.
For the variant R361H, the “effect of a mutation on the interaction” value is recorded as “with no effect”.

The variants in the next test derive from B3. The following applies: with irf4_human IRF4, Q15306. The source holds these as a separate data set.
In the case of R361C, the “effect of a mutation on the interaction” value is reported as “with no effect”.

The variants in a further test derive from B3. The settings on record: with irf4_human IRF4, Q15306. This is another data set of the same source.
In the case of D351H, the “effect of a mutation on the interaction” value is listed as “with no effect”.

In the next test the parent is B4. The settings on record: with traf3_human TRAF3, Q13114.
Consider G386D, for which the “effect of a mutation on the interaction” value is on record as “with no effect”.

The variants in the next test derive from B4. The settings on record: with traf3_human TRAF3, Q13114. This is another data set of the same source.
R361C: the “effect of a mutation on the interaction” value is “with no effect”.

Variants of B4 are the subject of the next test. The following applies: with traf3_human TRAF3, Q13114. The source holds these as a separate data set.
With R361H, the “effect of a mutation on the interaction” value was “with no effect”.

In a further test the parent is B4. The following applies: with traf3_human TRAF3, Q13114. This is another data set of the same source.
As for D351H, the “effect of a mutation on the interaction” value is recorded as “with no effect”.

Variants of B5 are the subject of another test. The following applies: with sncap_human SNCAIP.
Consider R361C, for which the “effect of a mutation on the interaction” value is recorded as “with no effect”.

Another test covers variants of B5. The following applies: with sncap_human SNCAIP. The source holds these as a separate data set.
Take R361H: the “effect of a mutation on the interaction” value is reported as “with no effect”.

The variants in the next test derive from B5. The following applies: with sncap_human SNCAIP. The source holds these as a separate data set.
For the variant D351H, the “effect of a mutation on the interaction” value was “with no effect”.

The variants in the next test derive from B5. The settings on record: with sncap_human SNCAIP. The source holds these as a separate data set.
As for G386D, the “effect of a mutation on the interaction” value is “with no effect”.

The variants in the next test derive from B6. The following applies: with nkx22_human NKX2-2, O95096.
As for R361C, the “effect of a mutation on the interaction” value was “with no effect”.

Variants of B6 are the subject of a further test. The following applies: with nkx22_human NKX2-2, O95096. This is another data set of the same source.
R361H: the “effect of a mutation on the interaction” value is “with no effect”.

In the next test the parent is B6. The settings on record: with nkx22_human NKX2-2, O95096. The source holds these as a separate data set.
Turning to D351H, the “effect of a mutation on the interaction” value is on record as “with no effect”.

The next test covers variants of B7. The following applies: with pa2gx_human PLA2G10, O15496.
For the variant D351H, the “effect of a mutation on the interaction” value is “with no effect”.

The variants in the next test derive from B7. The following applies: with pa2gx_human PLA2G10, O15496. The source holds these as a separate data set.
With R361C, the “effect of a mutation on the interaction” value was “with no effect”.
